Measurements: patent US20100015637A1 (AbbVie / Abbott, published 2010)

Tests used:
[1] = target: CHO human PlGF-1 comprising amino acids 1-137 (human PlGF-1-His (1-131), CHO 6305) (human) (UniProt P49763); assay: … sandwich, capture MAb04, detection pAb264; antigen 15 pg/mL
[2] = target: CHO human PlGF-1 fragment (comprising amino acids 17-131; ATCC PTA-8540) (human) (UniProt P49763); assay: as above
[3] = target: human PlGF-1 comprising amino acids 1-137 produced in human embryonic kidney cells (human) (UniProt P49763); assay: as above
[4] = target: human PlGF-1 fragment (comprising amino acids 17-131) produced in human embryonic kidney cells (human) (UniProt P49763); assay: as above
[5] = target: recombinant human PlGF-1 (comprising amino acids 1-131) expressed in E. coli (R&D Systems) (human) (UniProt P49763); assay: as above
[6] = target: CHO human PlGF-1 comprising amino acids 1-137 (human PlGF-1-His (1-131), CHO 6305) (human) (UniProt P49763); assay: … sandwich, capture MAb04, detection pAb264; antigen 60 pg/mL
[7] = target: CHO human PlGF-1 fragment (comprising amino acids 17-131; ATCC PTA-8540) (human) (UniProt P49763); assay: as above
[8] = target: human PlGF-1 comprising amino acids 1-137 produced in human embryonic kidney cells (human) (UniProt P49763); assay: as above
[9] = target: human PlGF-1 fragment (comprising amino acids 17-131) produced in human embryonic kidney cells (human) (UniProt P49763); assay: as above
[10] = target: recombinant human PlGF-1 (comprising amino acids 1-131) expressed in E. coli (R&D Systems) (human) (UniProt P49763); assay: as above
[11] = target: CHO human PlGF-1 comprising amino acids 1-137 (human PlGF-1-His (1-131), CHO 6305) (human) (UniProt P49763); assay: … sandwich, capture MAb04, detection pAb264; antigen 250 pg/mL
[12] = target: CHO human PlGF-1 fragment (comprising amino acids 17-131; ATCC PTA-8540) (human) (UniProt P49763); assay: as above
[13] = target: human PlGF-1 comprising amino acids 1-137 produced in human embryonic kidney cells (human) (UniProt P49763); assay: as above
[14] = target: human PlGF-1 fragment (comprising amino acids 17-131) produced in human embryonic kidney cells (human) (UniProt P49763); assay: as above
[15] = target: recombinant human PlGF-1 (comprising amino acids 1-131) expressed in E. coli (R&D Systems) (human) (UniProt P49763); assay: as above
[16] = target: CHO human PlGF-1 comprising amino acids 1-137 (human PlGF-1-His (1-131), CHO 6305) (human) (UniProt P49763); assay: … sandwich, capture MAb04, detection pAb264; antigen 750 pg/mL
[17] = target: CHO human PlGF-1 fragment (comprising amino acids 17-131; ATCC PTA-8540) (human) (UniProt P49763); assay: as above
[18] = target: human PlGF-1 comprising amino acids 1-137 produced in human embryonic kidney cells (human) (UniProt P49763); assay: as above
[19] = target: human PlGF-1 fragment (comprising amino acids 17-131) produced in human embryonic kidney cells (human) (UniProt P49763); assay: as above
[20] = target: recombinant human PlGF-1 (comprising amino acids 1-131) expressed in E. coli (R&D Systems) (human) (UniProt P49763); assay: as above
[21] = target: CHO human PlGF-1 comprising amino acids 1-137 (human PlGF-1-His (1-131), CHO 6305) (human) (UniProt P49763); assay: … sandwich, capture MAb04, detection pAb264; antigen 1500 pg/mL
[22] = target: CHO human PlGF-1 fragment (comprising amino acids 17-131; ATCC PTA-8540) (human) (UniProt P49763); assay: as above
[23] = target: human PlGF-1 comprising amino acids 1-137 produced in human embryonic kidney cells (human) (UniProt P49763); assay: as above
[24] = target: human PlGF-1 fragment (comprising amino acids 17-131) produced in human embryonic kidney cells (human) (UniProt P49763); assay: as above
[25] = target: recombinant human PlGF-1 (comprising amino acids 1-131) expressed in E. coli (R&D Systems) (human) (UniProt P49763); assay: as above
[26] = target: CHO human PlGF-1 comprising amino acids 1-137 (human PlGF-1-His (1-131), CHO 6305) (human) (UniProt P49763); assay: … sandwich, capture MAb04, detection pAb264; antigen 0 pg/mL (blank)
[27] = target: CHO human PlGF-1 fragment (comprising amino acids 17-131; ATCC PTA-8540) (human) (UniProt P49763); assay: as above
[28] = target: human PlGF-1 comprising amino acids 1-137 produced in human embryonic kidney cells (human) (UniProt P49763); assay: as above
[29] = target: human PlGF-1 fragment (comprising amino acids 17-131) produced in human embryonic kidney cells (human) (UniProt P49763); assay: as above
[30] = target: recombinant human PlGF-1 (comprising amino acids 1-131) expressed in E. coli (R&D Systems) (human) (UniProt P49763); assay: as above

Chain of CHO human PlGF-1 comprising amino acids 1-137 (human PlGF-1-His (1-131), CHO 6305) (human) (P49763 other isoform, or with tags, fused parts or gaps): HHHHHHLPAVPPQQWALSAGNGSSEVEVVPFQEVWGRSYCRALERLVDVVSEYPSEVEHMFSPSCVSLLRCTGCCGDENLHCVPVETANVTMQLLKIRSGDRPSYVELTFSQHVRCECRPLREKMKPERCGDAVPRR
Chain of human PlGF-1 comprising amino acids 1-137 produced in human embryonic kidney cells (human) (P49763 other isoform, or with tags, fused parts or gaps): as above
Chain of CHO human PlGF-1 fragment (comprising amino acids 17-131; ATCC PTA-8540) (human) (P49763 other isoform, or with tags, fused parts or gaps limits assumed): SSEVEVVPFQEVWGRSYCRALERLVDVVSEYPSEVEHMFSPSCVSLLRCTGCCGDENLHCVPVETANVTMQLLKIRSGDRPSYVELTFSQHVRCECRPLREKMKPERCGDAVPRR
Chain of human PlGF-1 fragment (comprising amino acids 17-131) produced in human embryonic kidney cells (human) (P49763 other isoform, or with tags, fused parts or gaps limits assumed): as above

- RLU [1]: 32100 RLU
- RLU [2]: 34200 RLU
- RLU [3]: 49700 RLU
- RLU [4]: 39500 RLU
- RLU [5]: 51900 RLU
- RLU [6]: 80100 RLU
- RLU [7]: 89500 RLU
- RLU [8]: 159000 RLU
- RLU [9]: 112000 RLU
- RLU [10]: 169000 RLU
- RLU [11]: 246000 RLU
- RLU [12]: 293000 RLU
- RLU [13]: 539000 RLU
- RLU [14]: 382000 RLU
- RLU [15]: 570000 RLU
- RLU [16]: 644000 RLU
- RLU [17]: 752000 RLU
- RLU [18]: 1.26e+06 RLU
- RLU [19]: 957000 RLU
- RLU [20]: 1.36e+06 RLU
- RLU [21]: 1.13e+06 RLU
- RLU [22]: 1.3e+06 RLU
- RLU [23]: 2.05e+06 RLU
- RLU [24]: 1.64e+06 RLU
- RLU [25]: 2.19e+06 RLU
- RLU [26]: 19100 RLU
- RLU [27]: 18900 RLU
- RLU [28]: 18800 RLU
- RLU [29]: 18700 RLU
- RLU [30]: 19000 RLU
Substance: rat monoclonal antibody 04 (Rat anti-Human PlGF clone number 358932, R&D Systems)
